According to FireProtDB (doi:10.1021/bi00416a052):

Details: Escherichia coli (strain K12), Thermal, CD, NaCl 0.1 M, reversible: yes, whole UniProt chain shown

B1: Ribonuclease HI wild type, P0A7Y4 (protein)
chain: MLKQVEIFTDGSCLGNPGPGGYGAILRYRGREKTFSAGYTRTTNNRMELMAAIVALEALKEHCEVILSTDSQYVRQGITQWIHNWKKRGWKTADKKPVKNVDLWQRLDAALGQHQIKWEWVKGHAGHPENERCDELARAAAMNPTLEDTGYQVEV
Protein B1 has a Tm (pH 3, glycine-HCl 10 mM) of 49.8 °C and a Tm (pH 5.5, Sodium acetate 20 mM) of 52 °C.
